Test results taken from patent US9981059B2, “Sugar chain-polypeptide complex” (Glytech, Inc., priority 2013, dated 2018).

How the values were obtained:
[1] = Steel ball loading test of hydrogel property; type: physicochemical; design: key to position of the steel ball / hydrogel state: The state of the steel ball staying near the hydrogel surface was set as ◯; sinking after loading and staying internally was set as Δ; sinking to the bottom of the Durham's tube was set as X; * was added to those where the hydrogel was not uniform and clouding or insoluble matter (precipitate) was observed
Description: Ten mg of the sugar chain-polypeptide complex or 10 mg of the control polypeptide were dissolved in 500 μL of ultrapure water to prepare 2 wt. % polypeptide solutions. […] In doing so, citrate-phosphate buffer (pH 2.0 and 3.5), phosphate buffer (pH 7.4), and phosphate-sodium hydroxide buffer (pH 11.5) were employed as the buffer. The surface of the hydrogel inside the Durham's tube was horizontally placed, left still for 20 minutes under room temperature conditions, and a steel ball (diameter 1.56 mm, weight 16 mg, FUNABE SEIKO Co., Ltd.) was loaded on the hydrogel. After 10 minutes, the position of the steel ball was observed by visual confirmation.
The position of the steel ball inside the Durham's tube was evaluated in 3 grades. The state of the steel ball staying near the hydrogel surface was set as ◯, sinking after loading and staying internally was set as Δ, and sinking to the bottom of the Durham's tube was set as X. In addition, * was added to those where the hydrogel was not uniform and clouding or insoluble matter (precipitate) was observed. A hydrogel where the steel ball stays around the surface (◯) and no clouding or insoluble matter is seen (no *) was thought to be a gel that is transparent and uniform.

[2] = Circular dichroism (CD) measurement of β sheet structure; type: physicochemical
Description: In general, the characteristics of the wavelengths observed when a substance has a β sheet structure are a positive absorption at around 197 nm and a negative absorption at around 216 nm. For this reason, focus was placed on the size of these wavelengths in the present invention, and the influence of pH on the β sheet structure was investigated.
One to ten millimolars of aqueous sodium hydroxide solutions were added to each of these aqueous polypeptide solutions to adjust the pH, and 100 mM aqueous polypeptide solutions at having pH 2 or pH 7 were created. These aqueous solutions were transferred to quartz cells having an optical path length of 0.1 cm. The CD spectrum was then measured with a spectrum polarimeter (J-805, Jasco) at wavelengths of 185-260 nm for ellipticity (millidegree). The mean residue ellipticity θ was calculated with the following formula: [θ]=(θobs/10·l·c)/r
wherein θobs represents the ellipticity measured in millidegree, l represents the cell length (cm), c represents the concentration (M), and r represents the number of amino acid residues.

[3] = Kinetic viscosity measurement with rheometer; type: physicochemical; conditions: 0.5 wt. % hydrogel, pH 7, 25 degrees
Description: A rheometer (MCR302, Anton Paar GmbH) equipped with a stainless steel parallel plate having a diameter of 25 mm with 0.3 mm gap height was employed for kinetic viscosity measurement. […] Five millimolars of aqueous sodium hydroxide solution was added to these aqueous polypeptide solutions in order to adjust the pH to prepare 0.5 wt. % hydrogels at pH 7. Subsequently, these hydrogels were quickly transferred to a rheometer set at 25 degrees, and phase angle (tan δ) was monitored over a time course. (frequency=1 Hz, distortion=10%)

[4] = Steel ball loading test of hydrogels comprising rat blood plasma (utility as hemostatic matrix); type: physicochemical; conditions: polypeptide 0.5 wt. %
Description: Aqueous polypeptide solutions were prepared with a method similar to Example 1. Blood was collected from 7 weeks-old Crlj:WI rats with heparin sodium injection (Ajinomoto), and blood plasma was obtained from the supernatant after centrifugation treatment. The aqueous polypeptide solution, blood plasma, and PBS were added to a Durham's tube, and hydrogels was prepared so that the plasma concentration was 5-50% and the polypeptide concentration was 0.5 wt. %. Subsequently, these were left for 20 minutes at room temperature condition, and then steel ball loading tests were carried out with a method similar to Example 1.

[5] = molecular target: T1, Bovine Serum Albumin (BSA) (Bos taurus, UniProt P02769); assay: Controlled release capability for acidic protein encapsulated in hydrogel
T1 construct: purchased Life Technologies A13100
Description: A phosphate buffer (pH 7.4) was employed as the buffer. Moreover, Bovine Serum Albumin (BSA) fluorescently labeled with Alexa Fluor™ 488 (A13100, Life Technologies) was employed as the acidic protein to be encapsulated into the hydrogel.
The components were added to the tube so that the buffer salt concentration is 0.15 M, the BSA concentration is 5 μM, and the polypeptide concentration is 0.25-1 wt. %, and mixed by vortex. The mixture was added to the Multiwell Insert System (351130, BD) at 50 μL each, and left overnight in an incubator at 37 degrees (CO2 incubator for cell culture, MCO-18AIC, SANYO) with shading to prepare BSA-encapsulating hydrogels. In the incubator at 37 degrees, the Insert System was immersed in a 96-well flat bottom plate (353928, BD) with a buffer identical to the hydrogel added at 225 μL each, and the plate was shaken with a plate shaker (MICRO PLATE MIXER NS-P, AS ONE Corporation, rotation speed: ⅕ of scale) to initiate the test (0 hours). Subsequently, the fluorescence amount that leaked out over time on the flat bottom plate side was measured with a fluorescence plate reader (SpectraMax M3, Molecular Devices, LLC.). A standard curve was created with the identical fluorescently-labeled BSA, and the protein concentration was calculated from the amount of fluorescent dye that leaked out. A solution of only BSA added to the buffer (W/O SAP) was employed as the control.

[6] = hydrogel concentration 0.5 wt. %, pH 3.5
[7] = hydrogel concentration 0.5 wt. %, pH 7.4

T1 sequence (P02769 25-607): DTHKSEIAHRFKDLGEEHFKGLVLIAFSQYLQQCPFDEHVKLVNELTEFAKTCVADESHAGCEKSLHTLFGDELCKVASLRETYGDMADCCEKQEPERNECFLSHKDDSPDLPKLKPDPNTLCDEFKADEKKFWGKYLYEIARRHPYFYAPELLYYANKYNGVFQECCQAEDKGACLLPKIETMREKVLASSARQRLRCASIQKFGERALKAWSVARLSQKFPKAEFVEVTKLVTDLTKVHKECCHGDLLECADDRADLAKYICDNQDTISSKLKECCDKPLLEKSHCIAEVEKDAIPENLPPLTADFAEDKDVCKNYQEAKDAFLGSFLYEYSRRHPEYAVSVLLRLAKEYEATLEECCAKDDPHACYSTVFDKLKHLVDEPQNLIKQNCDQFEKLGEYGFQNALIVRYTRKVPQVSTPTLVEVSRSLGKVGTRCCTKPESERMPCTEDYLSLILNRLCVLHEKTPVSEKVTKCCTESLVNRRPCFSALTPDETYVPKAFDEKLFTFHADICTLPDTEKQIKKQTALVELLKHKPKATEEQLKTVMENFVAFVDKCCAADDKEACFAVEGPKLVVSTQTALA

| Substance | position of the steel ball / hydrogel state [1, 6] | position of the steel ball / hydrogel state [1, 7] | hydrogel formed (in words) ([1]; 0.5 wt. %, pH 3.5 and pH 7.4) | other results |
| --- | --- | --- | --- | --- |
| 2C(Maltose)-(RADA)4 [Compound 8] | ◯* | X* | – | hydrogel formed (in words) ([1]; Example 4, 0.5 wt. %, pH 7.4): did not form hydrogels |
| 2C(Maltotriose)-(RADA)4 [Compound 9] | ◯ | ◯ | transparent and uniform hydrogels | – |
| 3C(Maltose)-(RADA)4 [Compound 12] | ◯ | ◯ | transparent and uniform hydrogels | – |
| (RADA)4 [Compound 1] | X* | X* | – | β sheet structure formation ([2]; neutral pH): formed almost no β sheet structure; molar ellipticity (CD) ([2]; pH 2, 100 mM aqueous polypeptide solution): high molar ellipticity; molar ellipticity (CD) ([2]; pH 7, 100 mM aqueous polypeptide solution): significantly reduced; rigidity of hydrogel formed [3]: a fragile hydrogel is formed, or an ununiform hydrogel that is only partially rigid is formed; phase angle (tan δ) over a time course ([3]; frequency 1 Hz, distortion 10%): large phase angle; hydrogel formed (in words) ([1]; 1 wt. %, pH 2.0): transparent and uniform hydrogel; hydrogel formed (in words) ([1]; 1 wt. %, pH 3.5 or higher): ununiform hydrogel with clouding; position of the steel ball / hydrogel state ([1]; peptide concentration 1 wt. %, pH 2.0): ◯; position of the steel ball / hydrogel state ([1]; peptide concentration 1 wt. %, pH 3.5): Δ*; position of the steel ball / hydrogel state ([1]; peptide concentration 1 wt. %, pH 7.4): X*; position of the steel ball / hydrogel state ([1]; peptide concentration 1 wt. %, pH 11.5): X*; position of the steel ball / hydrogel state ([4]; plasma concentration 5%): X*; hydrogel formed in presence of blood plasma (in words) ([4]; plasma concentration 5-50%): clouded and insoluble matters were observed at all plasma concentrations; position of the steel ball / hydrogel state ([4]; plasma concentration 10%): X*; position of the steel ball / hydrogel state ([4]; plasma concentration 25%): Δ*; position of the steel ball / hydrogel state ([4]; plasma concentration 50%): Δ*; controlled release capability (BSA leakage speed vs solution without any polypeptide) ([5]; pH 7.4, polypeptide 0.5 wt. % or less): does not possess controlled release capability; leakage of BSA encapsulated in the hydrogel ([5]; phosphate buffer pH 7.4, 37 degrees, polypeptide 0.25-1 wt. %): leaked out in a short time |
| (RATARAEA)2 (RATARAEARATARAEA) [Compound 16] | X* | X* | ununiform and clouded hydro gel | – |
| C(DiGlcNAc)-(RADA)4 [Compound 2] | – | – | – | controlled release capability (BSA leakage speed vs solution without any polypeptide) ([5]; pH 7.4, concentration as low as 0.25 wt. %): showing controlled release capability |
| C(Maltose)-(RADA)4-C(Maltose) [Compound 10] | ◯* | X* | – | hydrogel formed (in words) ([1]; Example 4, 0.5 wt. %, pH 7.4): did not form hydrogels |
| C(Maltotriose)-(RADA)4-C(Maltotriose) [Compound 11] | ◯ | ◯ | transparent and uniform hydrogels | – |
| C(PEG2000)-(RADA)4 [Compound 14] | X | X | uniform hydrogels were not formed | – |
